Reference: patent US20050037448A1

How the values were obtained:
des-31,32-proinsulin [1] = target: des-31,32-proinsulin (UniProt P01308); assay: competitive RIA, PEP001-coated tubes, 125I-Tyr-C-peptide; serum E1 overloaded with 0.67 pmol/ml des-31,32-proinsulin; competitor AC1D4 20 µg/ml
human proinsulin (human) [2] = target: human proinsulin (human) (UniProt P01308); assay: competitive RIA, PEP001-coated tubes, 125I-Tyr-C-peptide; serum E2 overloaded with 0.16 pmol/ml proinsulin; no AC1D4
des-64,65-proinsulin [3] = target: des-64,65-proinsulin (UniProt P01308); assay: competitive RIA, PEP001-coated tubes, 125I-Tyr-C-peptide; serum E1 overloaded with 0.67 pmol/ml des-64,65-proinsulin; competitor AC1D4 20 µg/ml
des-31,32-proinsulin [4] = target: des-31,32-proinsulin (UniProt P01308); assay: competitive RIA, PEP001-coated tubes, 125I-Tyr-C-peptide; serum E1 overloaded with 0.16 pmol/ml des-31,32-proinsulin; no AC1D4
human proinsulin (human) [5] = target: human proinsulin (human) (UniProt P01308); assay: competitive RIA, PEP001-coated tubes, 125I-Tyr-C-peptide; serum E1 overloaded with 3.33 pmol/ml proinsulin; competitor AC1D4 20 µg/ml
des-64,65-proinsulin [6] = target: des-64,65-proinsulin (UniProt P01308); assay: competitive RIA, PEP001-coated tubes, 125I-Tyr-C-peptide; serum E2 overloaded with 3.33 pmol/ml des-64,65-proinsulin; competitor AC1D4 20 µg/ml
human proinsulin (human) [7] = target: human proinsulin (human) (UniProt P01308); assay: competitive RIA, PEP001-coated tubes, 125I-Tyr-C-peptide; serum E1 overloaded with 0.67 pmol/ml proinsulin; no AC1D4
des-31,32-proinsulin [8] = target: des-31,32-proinsulin (UniProt P01308); assay: competitive RIA, PEP001-coated tubes, 125I-Tyr-C-peptide; serum E2 overloaded with 3.33 pmol/ml des-31,32-proinsulin; competitor AC1D4 20 µg/ml
des-31,32-proinsulin [9] = target: des-31,32-proinsulin (UniProt P01308); assay: competitive RIA, PEP001-coated tubes, 125I-Tyr-C-peptide; serum E2 overloaded with 3.33 pmol/ml des-31,32-proinsulin; no AC1D4
des-31,32-proinsulin [10] = target: des-31,32-proinsulin (UniProt P01308); assay: sandwich immunoenzymatic C-peptide assay: PEP001 beads, goat polyclonal conjugate; competitors AC1D4 + BC9B6 in equal quantities, column head 2 µg/ml
des-64,65-proinsulin [11] = target: des-64,65-proinsulin (UniProt P01308); assay: as above
human proinsulin (human) [12] = target: human proinsulin (human) (UniProt P01308); assay: as above
des-31,32-proinsulin [13] = target: des-31,32-proinsulin (UniProt P01308); assay: sandwich immunoenzymatic C-peptide assay: PEP001 beads, goat polyclonal conjugate; competitors AC1D4 + BC9B6 in equal quantities, 20 µg/ml
des-64,65-proinsulin [14] = target: des-64,65-proinsulin (UniProt P01308); assay: as above
human proinsulin (human) [15] = target: human proinsulin (human) (UniProt P01308); assay: as above
human proinsulin (human) [16] = target: human proinsulin (human) (UniProt P01308); assay: competitive RIA, PEP001-coated tubes, 125I-Tyr-C-peptide; serum E1 overloaded with 3.33 pmol/ml proinsulin; no AC1D4
des-31,32-proinsulin [17] = target: des-31,32-proinsulin (UniProt P01308); assay: competitive RIA, PEP001-coated tubes, 125I-Tyr-C-peptide; serum E2 overloaded with 0.16 pmol/ml des-31,32-proinsulin; no AC1D4
des-64,65-proinsulin [18] = target: des-64,65-proinsulin (UniProt P01308); assay: competitive RIA, PEP001-coated tubes, 125I-Tyr-C-peptide; serum E2 overloaded with 0.67 pmol/ml des-64,65-proinsulin; no AC1D4
des-31,32-proinsulin [19] = target: des-31,32-proinsulin (UniProt P01308); assay: competitive RIA, PEP001-coated tubes, 125I-Tyr-C-peptide; serum E1 overloaded with 0.67 pmol/ml des-31,32-proinsulin; no AC1D4
human proinsulin (human) [20] = target: human proinsulin (human) (UniProt P01308); assay: competitive RIA, PEP001-coated tubes, 125I-Tyr-C-peptide; serum E2 overloaded with 3.33 pmol/ml proinsulin; no AC1D4
human proinsulin (human) [21] = target: human proinsulin (human) (UniProt P01308); assay: competitive RIA, PEP001-coated tubes, 125I-Tyr-C-peptide; serum E2 overloaded with 0.16 pmol/ml proinsulin; competitor AC1D4 20 µg/ml
des-31,32-proinsulin [22] = target: des-31,32-proinsulin (UniProt P01308); assay: competitive RIA, PEP001-coated tubes, 125I-Tyr-C-peptide; serum E2 overloaded with 0.16 pmol/ml des-31,32-proinsulin; competitor AC1D4 20 µg/ml
human proinsulin (human) [23] = target: human proinsulin (human) (UniProt P01308); assay: competitive RIA, PEP001-coated tubes, 125I-Tyr-C-peptide; serum E2 overloaded with 0.67 pmol/ml proinsulin; competitor AC1D4 20 µg/ml
des-64,65-proinsulin [24] = target: des-64,65-proinsulin (UniProt P01308); assay: competitive RIA, PEP001-coated tubes, 125I-Tyr-C-peptide; serum E2 overloaded with 0.67 pmol/ml des-64,65-proinsulin; competitor AC1D4 20 µg/ml
des-64,65-proinsulin [25] = target: des-64,65-proinsulin (UniProt P01308); assay: competitive RIA, PEP001-coated tubes, 125I-Tyr-C-peptide; serum E1 overloaded with 0.16 pmol/ml des-64,65-proinsulin; competitor AC1D4 20 µg/ml
des-31,32-proinsulin [26] = target: des-31,32-proinsulin (UniProt P01308); assay: competitive RIA, PEP001-coated tubes, 125I-Tyr-C-peptide; serum E1 overloaded with 3.33 pmol/ml des-31,32-proinsulin; competitor AC1D4 20 µg/ml
des-31,32-proinsulin [27] = target: des-31,32-proinsulin (UniProt P01308); assay: competitive RIA, PEP001-coated tubes, 125I-Tyr-C-peptide; serum E1 overloaded with 3.33 pmol/ml des-31,32-proinsulin; no AC1D4

## PEP001 anti-C-peptide monoclonal antibody
des-31,32-proinsulin [1]
  Increase after overload (%): 12%
Human proinsulin (human) [2]
  Increase after overload (%): 1%
des-64,65-proinsulin [3]
  Increase after overload (%): 63%
des-31,32-proinsulin [4]
  Increase after overload (%): 8%
Human proinsulin (human) [5]
  Increase after overload (%): 31%
des-64,65-proinsulin [6]
  Increase after overload (%): 69%
Human proinsulin (human) [7]
  Increase after overload (%): 56%
des-31,32-proinsulin [8]
  Increase after overload (%): 6%
des-31,32-proinsulin [9]
  Increase after overload (%): 59%
des-31,32-proinsulin [10]
  percentage of cross reaction: 65%
des-64,65-proinsulin [11]
  percentage of cross reaction: 48%
Human proinsulin (human) [12]
  percentage of cross reaction: 23%
des-31,32-proinsulin [13]
  percentage of cross reaction: 19%
des-64,65-proinsulin [14]
  percentage of cross reaction: 10%
Human proinsulin (human) [15]
  percentage of cross reaction: 2%
Human proinsulin (human) [16]
  Increase after overload (%): 288%
des-31,32-proinsulin [17]
  Increase after overload (%): 10%
des-64,65-proinsulin [18]
  Increase after overload (%): 9%
des-31,32-proinsulin [19]
  Increase after overload (%): 38%
Human proinsulin (human) [20]
  Increase after overload (%): 54%
Human proinsulin (human) [21]
  Increase after overload (%): 0%
des-31,32-proinsulin [22]
  Increase after overload (%): 0%
Human proinsulin (human) [23]
  Increase after overload (%): 1%
des-64,65-proinsulin [24]
  Increase after overload (%): 18%
des-64,65-proinsulin [25]
  Increase after overload (%): 10%
des-31,32-proinsulin [26]
  Increase after overload (%): 21%
des-31,32-proinsulin [27]
  Increase after overload (%): 213%
